Publication PMC9411592 (2022)
Read-outs that look alike come from different tables or passages of the source.

Experiments:
[1] = target: L-TGF-β1 C4S/R249A (the 'WT' of the SPR assay) (human); experiment: SPR
[2] = target: L-TGF-β1 C4S/R249A (the 'WT' of the SPR assay) (human); experiment: SPR; remark: listed apart in the source

Chain of L-TGF-β1 C4S/R249A (the 'WT' of the SPR assay) (human) (chain, as listed by the source R249A): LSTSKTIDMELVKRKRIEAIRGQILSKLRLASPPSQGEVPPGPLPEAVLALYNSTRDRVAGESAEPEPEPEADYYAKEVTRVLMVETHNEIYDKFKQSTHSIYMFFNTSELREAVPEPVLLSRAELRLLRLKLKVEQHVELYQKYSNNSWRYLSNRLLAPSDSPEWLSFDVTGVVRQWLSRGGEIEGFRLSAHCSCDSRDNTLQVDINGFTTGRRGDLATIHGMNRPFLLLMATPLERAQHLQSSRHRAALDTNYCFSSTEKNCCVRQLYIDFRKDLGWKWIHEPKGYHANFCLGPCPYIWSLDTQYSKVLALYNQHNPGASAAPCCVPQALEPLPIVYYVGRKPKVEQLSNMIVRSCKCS

koff [1]	koff [2]	Binder
0.00109 s⁻¹		integrin αVβ8 headpiece (αV residues 1-594, β8 residues 1-456) (complex) chain 1: FNLDVDSPAEYSGPEGSYFGFAVDFFVPSASSRMFLLVGAPKANTTQPGIVEGGQVLKCDWSSTRRCQPIEFDATGNRDYAKDDPLEFKSHQWFGASVRSKQDKILACAPLYHWRTEMKQEREPVGTCFLQDGTKTVEYAPCRSQDIDADGQGFCQGGFSIDFTKADRVLLGGPGSFYWQGQLISDQVAEIVSKYDPNVYSIKYNNQLATRTAQAIFDDSYLGYSVAVGDFNGDGIDDFVSGVPRAARTLGMVYIYDGKNMSSLYNFTGEQMAAYFGFSVAATDINGDDYADVFIGAPLFMDRGSDGKLQEVGQVSVSLQRASGDFQTTKLNGFEVFARFGSAIAPLGDLDQDGFNDIAIAAPYGGEDKKGIVYIFNGRSTGLNAVPSQILEGQWAARSGCPPSFGYSMKGATDIDKNGYPDLIVGAFGVDRAILYRARPVITVNAGLEVYPSILNQDNKTCSLPGTALKVSCFNVRFCLKADGKGVLPRKLNFQVELLLDKLKQKGAIRRALFLYSRSPSHSKNMTISRGGLMQCEELIAYLRDESEFRDKLTPITIFMEYRLDYRTAADTTGLQPILNQFTPANISRQAHILLD chain 2: EDNRCASSNAASCARCLALGPECGWCVQEDFISGGSRSERCDIVSNLISKGCSVDSIEYPSVHVIIPTENEINTQVTPGEVSIQLRPGAEANFMLKVHPLKKYPVDLYYLVDVSASMHNNIEKLNSVGNDLSRKMAFFSRDFRLGFGSYVDKTVSPYISIHPERIHNQCSDYNLDCMPPHGYIHVLSLTENITEFEKAVHRQKISGNIDTPEGGFDAMLQAAVCESHIGWRKEAKRLLLVMTDQTSHLALDSKLAGIVCPNDGNCHLKNNVYVKSTTMEHPSLGQLSEKLIDNNINVIFAVQGKQFHWYKDLLPLLPGTIAGEIESKAANLNNLVVEAYQKLISEVKVQVENQVQGIYFNITAICPDGSRKPGMEGCRNVTSNDEVLFNVTVTMKKCDVTGGKNYAIIKPIGFNETAKIHIHRNCSCQCEDNRGPKGKCVDETFLDSKCFQCDENK
	0.000107 s⁻¹	integrin αVβ6 headpiece (αV residues 1-594, β6 residues 1-474) (complex) chain 1: FNLDVDSPAEYSGPEGSYFGFAVDFFVPSASSRMFLLVGAPKANTTQPGIVEGGQVLKCDWSSTRRCQPIEFDATGNRDYAKDDPLEFKSHQWFGASVRSKQDKILACAPLYHWRTEMKQEREPVGTCFLQDGTKTVEYAPCRSQDIDADGQGFCQGGFSIDFTKADRVLLGGPGSFYWQGQLISDQVAEIVSKYDPNVYSIKYNNQLATRTAQAIFDDSYLGYSVAVGDFNGDGIDDFVSGVPRAARTLGMVYIYDGKNMSSLYNFTGEQMAAYFGFSVAATDINGDDYADVFIGAPLFMDRGSDGKLQEVGQVSVSLQRASGDFQTTKLNGFEVFARFGSAIAPLGDLDQDGFNDIAIAAPYGGEDKKGIVYIFNGRSTGLNAVPSQILEGQWAARSGCPPSFGYSMKGATDIDKNGYPDLIVGAFGVDRAILYRARPVITVNAGLEVYPSILNQDNKTCSLPGTALKVSCFNVRFCLKADGKGVLPRKLNFQVELLLDKLKQKGAIRRALFLYSRSPSHSKNMTISRGGLMQCEELIAYLRDESEFRDKLTPITIFMEYRLDYRTAADTTGLQPILNQFTPANISRQAHILLD chain 2: HVQGGCALGGAETCEDCLLIGPQCAWCAQENFTHPSGVGERCDTPANLLAKGCQLNFIENPVSQVEILKNKPLSVGRQKNSSDIVQIAPQSLILKLRPGGAQTLQVHVRQTEDYPVDLYYLMDLSASMDDDLNTIKELGSRLSKEMSKLTSNFRLGFGSFVEKPVSPFVKTTPEEIANPCSSIPYFCLPTFGFKHILPLTNDAERFNEIVKNQKISANIDTPEGGFDAIMQAAVCKEKIGWRNDSLHLLVFVSDADSHFGMDSKLAGIVCPNDGLCHLDSKNEYSMSTVLEYPTIGQLIDKLVQNNVLLIFAVTQEQVHLYENYAKLIPGATVGLLQKDSGNILQLIISAYEELRSEVELEVLGDTEGLNLSFTAICNNGTLFQHQKKCSHMKVGDTASFSVTVNIPHCERRSRHIIIKPVGLGDALELLVSPECNCDCQKEVEVNSSKCHHGNGSFQCGVCACHPGHMGPRCE

The remaining lines, values behind:

Binder	koff [1]	koff [2]
integrin αVβ6-8DLL headpiece (the disulfide-linked loop of β6 substituted by that of β8) (complex) chain 1: FNLDVDSPAEYSGPEGSYFGFAVDFFVPSASSRMFLLVGAPKANTTQPGIVEGGQVLKCDWSSTRRCQPIEFDATGNRDYAKDDPLEFKSHQWFGASVRSKQDKILACAPLYHWRTEMKQEREPVGTCFLQDGTKTVEYAPCRSQDIDADGQGFCQGGFSIDFTKADRVLLGGPGSFYWQGQLISDQVAEIVSKYDPNVYSIKYNNQLATRTAQAIFDDSYLGYSVAVGDFNGDGIDDFVSGVPRAARTLGMVYIYDGKNMSSLYNFTGEQMAAYFGFSVAATDINGDDYADVFIGAPLFMDRGSDGKLQEVGQVSVSLQRASGDFQTTKLNGFEVFARFGSAIAPLGDLDQDGFNDIAIAAPYGGEDKKGIVYIFNGRSTGLNAVPSQILEGQWAARSGCPPSFGYSMKGATDIDKNGYPDLIVGAFGVDRAILYRARPVITVNAGLEVYPSILNQDNKTCSLPGTALKVSCFNVRFCLKADGKGVLPRKLNFQVELLLDKLKQKGAIRRALFLYSRSPSHSKNMTISRGGLMQCEELIAYLRDESEFRDKLTPITIFMEYRLDYRTAADTTGLQPILNQFTPANISRQAHILLD chain 2: HVQGGCALGGAETCEDCLLIGPQCAWCAQENFTHPSGVGERCDTPANLLAKGCQLNFIENPVSQVEILKNKPLSVGRQKNSSDIVQIAPQSLILKLRPGGAQTLQVHVRQTEDYPVDLYYLMDLSASMDDDLNTIKELGSRLSKEMSKLTSNFRLGFGSFVEKPVSPFVKTTPEEIANPCSDYNLDCLPTFGFKHILPLTNDAERFNEIVKNQKISANIDTPEGGFDAIMQAAVCKEKIGWRNDSLHLLVFVSDADSHFGMDSKLAGIVCPNDGLCHLDSKNEYSMSTVLEYPTIGQLIDKLVQNNVLLIFAVTQEQVHLYENYAKLIPGATVGLLQKDSGNILQLIISAYEELRSEVELEVLGDTEGLNLSFTAICNNGTLFQHQKKCSHMKVGDTASFSVTVNIPHCERRSRHIIIKPVGLGDALELLVSPECNCDCQKEVEVNSSKCHHGNGSFQCGVCACHPGHMGPRCE		0.00121 s⁻¹
integrin αVβ8-6DLL headpiece (the disulfide-linked loop of β8 substituted by that of β6) (complex) chain 1: FNLDVDSPAEYSGPEGSYFGFAVDFFVPSASSRMFLLVGAPKANTTQPGIVEGGQVLKCDWSSTRRCQPIEFDATGNRDYAKDDPLEFKSHQWFGASVRSKQDKILACAPLYHWRTEMKQEREPVGTCFLQDGTKTVEYAPCRSQDIDADGQGFCQGGFSIDFTKADRVLLGGPGSFYWQGQLISDQVAEIVSKYDPNVYSIKYNNQLATRTAQAIFDDSYLGYSVAVGDFNGDGIDDFVSGVPRAARTLGMVYIYDGKNMSSLYNFTGEQMAAYFGFSVAATDINGDDYADVFIGAPLFMDRGSDGKLQEVGQVSVSLQRASGDFQTTKLNGFEVFARFGSAIAPLGDLDQDGFNDIAIAAPYGGEDKKGIVYIFNGRSTGLNAVPSQILEGQWAARSGCPPSFGYSMKGATDIDKNGYPDLIVGAFGVDRAILYRARPVITVNAGLEVYPSILNQDNKTCSLPGTALKVSCFNVRFCLKADGKGVLPRKLNFQVELLLDKLKQKGAIRRALFLYSRSPSHSKNMTISRGGLMQCEELIAYLRDESEFRDKLTPITIFMEYRLDYRTAADTTGLQPILNQFTPANISRQAHILL chain 2: EDNRCASSNAASCARCLALGPECGWCVQEDFISGGSRSERCDIVSNLISKGCSVDSIEYPSVHVIIPTENEINTQVTPGEVSIQLRPGAEANFMLKVHPLKKYPVDLYYLVDVSASMHNNIEKLNSVGNDLSRKMAFFSRDFRLGFGSYVDKTVSPYISIHPERIHNQCSSIPYFCMPPHGYIHVLSLTENITEFEKAVHRQKISGNIDTPEGGFDAMLQAAVCESHIGWRKEAKRLLLVMTDQTSHLALDSKLAGIVCPNDGNCHLKNNVYVKSTTMEHPSLGQLSEKLIDNNINVIFAVQGKQFHWYKDLLPLLPGTIAGEIESKAANLNNLVVEAYQKLISEVKVQVENQVQGIYFNITAICPDGSRKPGMEGCRNVTSNDEVLFNVTVTMKKCDVTGGKNYAIIKPIGFNETAKIHIHRNCSCQCEDNRGPKGKCVDETFLDSKCFQCDENK		0.000142 s⁻¹
αVβ8-IgG1 Fc (heterotetramer of αVβ8 linked by the IgG1 Fc fragment on the C-terminus of β8) (Fc fusion) chain 1: FNLDVDSPAEYSGPEGSYFGFAVDFFVPSASSRMFLLVGAPKANTTQPGIVEGGQVLKCDWSSTRRCQPIEFDATGNRDYAKDDPLEFKSHQWFGASVRSKQDKILACAPLYHWRTEMKQEREPVGTCFLQDGTKTVEYAPCRSQDIDADGQGFCQGGFSIDFTKADRVLLGGPGSFYWQGQLISDQVAEIVSKYDPNVYSIKYNNQLATRTAQAIFDDSYLGYSVAVGDFNGDGIDDFVSGVPRAARTLGMVYIYDGKNMSSLYNFTGEQMAAYFGFSVAATDINGDDYADVFIGAPLFMDRGSDGKLQEVGQVSVSLQRASGDFQTTKLNGFEVFARFGSAIAPLGDLDQDGFNDIAIAAPYGGEDKKGIVYIFNGRSTGLNAVPSQILEGQWAARSGCPPSFGYSMKGATDIDKNGYPDLIVGAFGVDRAILYRARPVITVNAGLEVYPSILNQDNKTCSLPGTALKVSCFNVRFCLKADGKGVLPRKLNFQVELLLDKLKQKGAIRRALFLYSRSPSHSKNMTISRGGLMQCEELIAYLRDESEFRDKLTPITIFMEYRLDYRTAADTTGLQPILNQFTPANISRQAHILL chain 2: EDNRCASSNAASCARCLALGPECGWCVQEDFISGGSRSERCDIVSNLISKGCSVDSIEYPSVHVIIPTENEINTQVTPGEVSIQLRPGAEANFMLKVHPLKKYPVDLYYLVDVSASMHNNIEKLNSVGNDLSRKMAFFSRDFRLGFGSYVDKTVSPYISIHPERIHNQCSDYNLDCMPPHGYIHVLSLTENITEFEKAVHRQKISGNIDTPEGGFDAMLQAAVCESHIGWRKEAKRLLLVMTDQTSHLALDSKLAGIVCPNDGNCHLKNNVYVKSTTMEHPSLGQLSEKLIDNNINVIFAVQGKQFHWYKDLLPLLPGTIAGEIESKAANLNNLVVEAYQKLISEVKVQVENQVQGIYFNITAICPDGSRKPGMEGCRNVTSNDEVLFNVTVTMKKCDVTGGKNYAIIKPIGFNETAKIHIHRNCSCQCEDNRGPKGKCVDETFLDSKCFQCDENK	7.6e-05 s⁻¹	
